What is called stoichiometry N is the number of molecules, sites or subunits per partner or assembly. Usually Kd stands for the concentration at which binding is half-saturated. Higher therefore signals a looser complex. As a reminder, the Km is the concentration of substrate that gives half-maximal velocity.

Series [1] concerns the target Q1 chimera (NBzdRL fused to E. coli shikimate kinase I) (Azoarcus sp. CIB | E. coli) (UniProt P0A6D7). Kind of series: AUC; sedimentation velocity of purified His6-tagged proteins, c(s) distribution; s-value did not change significantly over 1-30 µM protein.
Series [2] deals with NBzdRL, N-terminal domain of BzdR fused to its linker region (Azoarcus sp. CIB). The series can be described thus: AUC; sedimentation equilibrium of the purified proteins in solution, data fitted to dimer and monomer species; sedimentation velocity showed single species (1.8 and 2.3 S); conditions not shown.
The target in series [3] is T1, BzdR (CBzdR, C-terminal effector-binding domain).
T1 construct: His6-CBzdR, residues 131–298
The series can be described thus: intrinsic protein fluorescence titration, one-site model. Further details: species or system Azoarcus sp. CIB.

The target in series [4] is NBzdR, N-terminal DNA-binding domain of BzdR (Azoarcus sp. CIB). The series can be described thus: AUC; sedimentation equilibrium of the purified proteins in solution, data fitted to dimer and monomer species; sedimentation velocity showed single species (1.8 and 2.3 S); conditions not shown.
Substrate in series [5]: O=C(O)C1=C[C@@H](O)[C@@H](O)[C@H](O)C1
Kind of series: coupled pyruvate kinase/lactate dehydrogenase shikimate kinase assay (Km). In kind it is biochemical, Escherichia coli. Conditions: Mg2+, ATP.

In series [1], “Q1 chimera (NBzdRL fused to E. coli shikimate kinase I) (from UniProt P0A6D7 1-173)” showed a stoichiometry N of 2.

“NBzdRL, N-terminal domain of BzdR fused to its linker region (domain or fragment)” had a stoichiometry N in series [2] of 2.

Take `CC(C)(COP(=O)(O)OP(=O)(O)OC[C@H]1O[C@@H](n2cnc3c(N)ncnc32)[C@H](O)[C@@H]1OP(=O)(O)O)[C@@H](O)C(=O)NCCC(=O)NCCSC(=O)c1ccccc1` [benzoyl-CoA]: the Kd in series [3] came out at 203 ± 35 µM.

“NBzdR, N-terminal DNA-binding domain of BzdR (domain or fragment)” gave a stoichiometry N in series [4] of 2.

B1: shikimate kinase I (SKI) (Escherichia coli K-12) (protein)
chain: AEKRNIFLVGPMGAGKSTIGRQLAQQLNMEFYDSDQEIEKRTGADVGWVFDLEGEEGFRDREEKVINELTEKQGIVLATGGGSVKSRETRNRLSARGVVVYLETTIEKQLARTQRDKKRPLLHVETPPREVLEALANERNPLYEEIADVTIRTDDQSAKVVANQIIHMLESN
notes: His6-SKI
Consider B1, for which the Km in series [5] was determined as 0.4 mM.

The record behind these values is article PMC3602430, “Identification of a Missing Link in the Evolution of an Enzyme into a Transcriptional Regulator” (PLoS ONE, 2013).
